Assay results published in patent publication CN1905899A (dated 2007).

Target: T1, EphA2 on cells (MDA-MB-231, MCF-10A, A549, MCF-7 EphA2 transfectants, prostate cancer tissue) (human, UniProt P29317 24-976)
T1 construct: whole, on cells; The other cells are human cell lines; also called EphA2受体
Experiment: immunofluorescence staining of cells

T1 sequence (P29317 24-976): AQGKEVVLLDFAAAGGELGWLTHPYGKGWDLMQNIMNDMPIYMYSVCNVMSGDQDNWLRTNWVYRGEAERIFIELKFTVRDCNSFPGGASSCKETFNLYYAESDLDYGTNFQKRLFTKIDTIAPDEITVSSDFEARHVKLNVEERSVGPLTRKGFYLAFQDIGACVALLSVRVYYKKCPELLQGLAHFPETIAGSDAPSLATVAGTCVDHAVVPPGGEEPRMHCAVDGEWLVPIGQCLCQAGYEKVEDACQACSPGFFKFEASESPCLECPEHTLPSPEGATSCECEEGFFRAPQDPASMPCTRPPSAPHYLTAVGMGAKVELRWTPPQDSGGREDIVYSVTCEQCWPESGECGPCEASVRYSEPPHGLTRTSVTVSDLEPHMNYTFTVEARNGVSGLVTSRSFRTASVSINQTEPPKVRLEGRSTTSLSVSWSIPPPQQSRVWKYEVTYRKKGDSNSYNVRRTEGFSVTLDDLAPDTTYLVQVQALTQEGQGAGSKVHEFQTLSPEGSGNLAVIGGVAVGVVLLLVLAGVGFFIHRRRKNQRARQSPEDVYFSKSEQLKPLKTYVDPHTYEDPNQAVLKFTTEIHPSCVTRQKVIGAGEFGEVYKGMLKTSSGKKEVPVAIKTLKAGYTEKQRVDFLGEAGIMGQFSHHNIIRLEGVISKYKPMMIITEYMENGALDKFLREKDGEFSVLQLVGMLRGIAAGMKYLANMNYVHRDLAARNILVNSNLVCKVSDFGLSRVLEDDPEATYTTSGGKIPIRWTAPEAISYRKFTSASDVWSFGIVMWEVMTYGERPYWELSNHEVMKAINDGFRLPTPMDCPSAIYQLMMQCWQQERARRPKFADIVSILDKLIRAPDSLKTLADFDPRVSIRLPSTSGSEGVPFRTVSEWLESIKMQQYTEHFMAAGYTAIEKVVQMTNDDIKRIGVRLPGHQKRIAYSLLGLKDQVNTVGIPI

binding result: binds
B1: EA2 anti-EphA2 monoclonal antibody (hybridoma strain EA2.31, ATCC PTA-4380) (antibody, V domains shown)
VH: DVKLVESGGGLVKPGGSLKLSCAASGFTFSSYTMSWVRQTPEKRLEWVATISSGGTYTYYPDSVKGRFTISRDNAKNTLYLQMSSLKSEDTAMYYCTREAIFTYWGQGTLVTVSA
VL: DIKMTQSPSSMYASLGERVTITCKASQDINNYLSWFQQKPGKSPKTLIYRANRVDGVPSRFSGSGSGQDYSLTISSLEYEDMGIYYCLKYDEFPYTFGGGTKLEIK
notes: Mouse hybridoma monoclonal
